Holding throughout (assay type): protein assay
Substrate in series [1]: O=[N+]([O-])c1ccc(O[C@H]2O[C@H](CO)[C@@H](O)[C@H](O)[C@@H]2O)cc1
Briefly: Activity of Bacteroides thetaiotaomicron GH92 alpha-mannosidase GH92 alpha-mannosidase 1878 assessed as mannose release after 16 hrs by HPLC.

Substrate in series [2]: O=[N+]([O-])c1ccc(O[C@H]2O[C@H](CO)[C@@H](O)[C@H](O)[C@@H]2O)cc1
The series can be described thus: Ratio of Kcat to Km for Bacteroides thetaiotaomicron GH92 alpha-mannosidase GH92 alpha-mannosidase 1878 assessed as mannose release after 16 hrs by HPLC.

Substrate in series [3]: O=[N+]([O-])c1ccc(O[C@H]2O[C@H](CO)[C@@H](O)[C@H](O)[C@@H]2O)cc1
Briefly: Ratio of Kcat to Km for Bacteroides thetaiotaomicron GH92 alpha-mannosidase GH92 alpha-mannosidase 3858 assessed as mannose release after 16 hrs by HPLC.

Substrate in series [4]: O=[N+]([O-])c1ccc(O[C@H]2O[C@H](CO)[C@@H](O)[C@H](O)[C@@H]2O)cc1
Briefly: Activity of Bacteroides thetaiotaomicron GH92 alpha-mannosidase GH92 alpha-mannosidase 3858 assessed as mannose release after 16 hrs by HPLC.

Substrate in series [5]: O=[N+]([O-])c1ccc(O[C@H]2O[C@H](CO)[C@@H](O)[C@H](O)[C@@H]2O)cc1
The series can be described thus: Ratio of Kcat to Km for Bacteroides thetaiotaomicron GH92 alpha-mannosidase GH92 alpha-mannosidase 2948 assessed as mannose release after 16 hrs by HPLC.

Substrate in series [6]: O=[N+]([O-])c1ccc(O[C@H]2O[C@H](CO)[C@@H](O)[C@H](O)[C@@H]2O)cc1
Briefly: Activity of Bacteroides thetaiotaomicron GH92 alpha-mannosidase 1032 assessed as mannose release after 16 hrs by HPLC.

Substrate in series [7]: O=[N+]([O-])c1ccc(O[C@H]2O[C@H](CO)[C@@H](O)[C@H](O)[C@@H]2O)cc1
Briefly: Ratio of Kcat to Km for Bacteroides thetaiotaomicron GH92 alpha-mannosidase 1032 assessed as mannose release after 16 hrs by HPLC.

Substrate in series [8]: O=[N+]([O-])c1ccc(O[C@H]2O[C@H](CO)[C@@H](O)[C@H](O)[C@@H]2O)cc1
Briefly: Ratio of Kcat to Km for Bacteroides thetaiotaomicron GH92 alpha-mannosidase GH92 alpha-mannosidase 3963 assessed as mannose release after 16 hrs by HPLC.

Substrate in series [9]: O=[N+]([O-])c1ccc(O[C@H]2O[C@H](CO)[C@@H](O)[C@H](O)[C@@H]2O)cc1
Briefly: Activity of Bacteroides thetaiotaomicron GH92 alpha-mannosidase GH92 alpha-mannosidase 3963 assessed as mannose release after 16 hrs by HPLC.

Substrate in series [10]: O=[N+]([O-])c1ccc(O[C@H]2O[C@H](CO)[C@@H](O)[C@H](O)[C@@H]2O)cc1
Briefly: Ratio of Kcat to Km for Bacteroides thetaiotaomicron GH92 alpha-mannosidase GH92 alpha-mannosidase 3130 assessed as mannose release after 16 hrs by HPLC.

Substrate in series [11]: O=[N+]([O-])c1ccc(O[C@H]2O[C@H](CO)[C@@H](O)[C@H](O)[C@@H]2O)cc1
The series can be described thus: Activity of Bacteroides thetaiotaomicron GH92 alpha-mannosidase GH92 alpha-mannosidase 3130 assessed as mannose release after 16 hrs by HPLC.

Broadly, the Km is the substrate concentration at which the rate is half of its maximum. One may read the kcat as the number of substrate molecules converted per active site and unit of time at saturation. A word on the kcat/Km: it is the second-order rate constant that governs catalysis at low substrate concentration.

B1: Alpha-1,2-mannosidase (BT_1878) (Bacteroides thetaiotaomicron), Q8A6K3 (protein)
chain: MIIMKRKSPVMAVALAGLFMYTSCSPTEQAETKDYTQYVNTFIGAADNGHTFPGACYPFGMIQTSPVTGAVGWRYCSEYTYQDSLIWGFTQTHLNGTGCMDLGDILVMPVTGTRARAWDAYRSHFPKDKEAATPGYYTVELSDPQVKAELTASIHAALHRYTYHKADSASLLIDLQHGPAWREEQYHSQVNSCEVNWEDAQTLAGHVNNTVWVDQDYFFVMKFNRPVIDSLYLPMGETEKGKRIIATFDLKPGDELMMKVALSTTSVEGAKKNLQAEIPDWNFDGVKLAAHDEWNSYLSRMDVEGTDDEKTNFYTCFYHALIQPNQISDVDGMYRNAADSIVKAGTGTFYSTFSLWDTYRAAHPFYTLMVPERVDDFVNSLIEQGEVQGFLPIWALWGKENFCMIGNHGVSVIAEAYRKGFRGFDAERAFNMVKKTQTVSHPLKSDWEVYTKYGYFPTDLTKAESVSSTLESVYDDYAAADMARRMGKEEDAAYFAKRADYYKNLFDSQTNFMRPRKADGTWKSPFNPSDVGHAESTGGDYTEGNAWQYTWHVQHDVPGLIALFGGEEPFLNKLDSLFTVKLETTQADVTGLIGQYAHGNEPSHHVTYLYALAGRPERTQELIREIFDTQYKNKPDGLCGNDDCGQMSAWYMFSAMGFYPVDPVSGDYVFGAPQLPKIVLHLADGKTFTVIAENLSKEHKYVDSITLNGEPYTKNTISHEDILKGGTLVYKMK
B1: in series [1], the Km was determined as 900 µM and the turnover number (kcat) was determined as 0.00133 s⁻¹. In addition, in [2], the kcat/Km worked out at 1.48 M⁻¹ s⁻¹.

B2: Alpha-1,2-mannosidase (BT_3858) (Bacteroides thetaiotaomicron), Q8A113 (protein)
chain: MMMNRLNIKRTVGSCLMAMAFFSCTHTDQTPTKDFVDYVNPYIGNISHLLVPTYPTVHLPNSMLRVYPERGDYTSDRVNGLPVVVTSHRGSSAFNLSPVQGEVSRPIVSYSYDLENITPYSYSVYLDEADIQVEYAPSHQAGIYHISFGTEGDNALVVNTKNGKLVAEEKGVSGYQVIDNTPTKIYLYLETSQLPLRKGVLADGKVDMESKEGSAIALYYGSEKNLNLRYGISFISAEQAKKNLQRDITTYDVKAVADAGRRIWNKTLGKIVIEGGSEDEKEIFYTSLYRTYERMINLSEDGKYYSAFDGKIHEDGGVPFYTDDWIWDTYRATHPLRILIEPQKELDMIRSYIRMAEQSDRRWMPTFPEVTGDSHRMNGNHAVAVIWDAYCKGLKDFDLEAAYEACKGAITEKTLLPWLRCPLTELDKFYQEKGFFPALNPGEEETCKAVHSFERRQAVAVMLGNCYDNWCLAQIARTLNKTDDYKKFMRMSYTYRNVYNAETGFFHPKNKDGKFIEPFDYRYSGGQGARGYYGENNGWIYRWDVQHNPADLIALMGGQASFIERLNQTFNEPLGRSKFDFYHQLPDHTGNVGQFSMANEPCLHIPYLYNYAGQPWMTQKRIRVLLNQWFRNDLMGVPGDEDGGGMTAFVVFSMMGFYPVTPGSPTYNIGSPVFQSAKMEVGDGHYFEIIAENYAPDHKYIQSATLNGTPWNKPWFSHADIQNGGRLVLQMGDKPNKKWGIASDAVPPSSESLPE
With B2, the catalytic efficiency (kcat/Km) in series [3] was 1.57 M⁻¹ s⁻¹. In series [4], the Michaelis-Menten constant (Km) came out at 270 µM and the kcat came out at 0.000417 s⁻¹.

B3: Alpha-1,2-mannosidase (BT_2948) (Bacteroides thetaiotaomicron), Q8A3K6 (protein)
chain: MKMKLLILAVLPFLTPINMNSQEEKASWVQYVNPLIGTEVWQSGVAVAGHEDPSGYTFPGVTEPFGMTEWTAHTLESKHAGTLHHRVPYWYKHNYISGFMGTHYPSGAVMFDYGAVELMPVVGQLKCRPEERSSSFTHITEKSKPHFYEVMLDDYQVKAQLSATKTSAILQFTYPQSDSAYVVVDAMPSMFTAGAPGYIHIDPVRKEISGKSIQSARGYRETGYFVVRFDKDFDSFGTFNLNNDYPEVIEEKYLFTQKEGKWVNGLKGIYTQDSKGVGHLRSEKIDPVIDFDWDWYKPADDFSFNDYQVTWSGKLKAPSTGEYTLGIQADDGARLYINGELLIDDWKSHSFSYQPTQKKISLEAGKMYDIKLEYYQHEWSSRIKLSWIRPDKKSSTSLLTGNRHLESSTKIGGYIRFKTGKNEVIKAIVGTSFISVEQARINLEREIGAKSMETISAQTEALWNKELSVIDLPGATEQDKIVFYTALYHSFLLPRSLSEDGKYRSPFDGKVHKGISFTDYSIWDTFRATHPLFVLLKPDFAGDLITGLLHAYDEGGWLPKWPNPGYTNCMMGTHSDAIIADAYVKGVRNFDVEKAKKAVLKNAYEKGNHIAWGRLGIMDYERLGYVPVDKYGESVARTMEFAYDDYCLSRFFAEKGEPDLSDKLGKRSKNFRNVLDKETKMVRARKADGSWSNPEDYDISVWSGFNPKGVYNYKKNYTLFVPHDVPELIRFLGGTDSLAVFMDELFDKDIYYVGDEFVMHAPYMYNLCKRPWMTQKRIYDIVNKYYLPTPSGLPGNDDCGQLSSWYIFSAMGFYPMCPASIEYQLGVPCLPGFVLHLPQNRTFTIKTKNFGKGNCYVRAVYLNGKPHRSSVITHSDIINGGEILFELTDKPAYNWFQ
In the case of B3, the kcat/Km in [5] was 42.7 M⁻¹ s⁻¹.

B4: Alpha-1,2-mannosidase family protein (BT_1032) (Bacteroides thetaiotaomicron), Q8A8Y5 (protein)
chain: MRRILLTCTLAFTLLPVFGGEGKAPPMDKEKSLLIDYVDPFIGTTNFGTTNPGAVCPNGMMSVVPFNVMGSADNTYDKDARWWSTPYEHTNCFFTGYSHVNLSGVGCPELGSLLLMPTTGELNVDYKEYGSKYKDEQASPGYYSNYLTKYNIKTEVSATPRTGIARFTFPKGESHILLNLGEGLTNESGAMLRRVSDSEIEGMKLLGTFCYNPQAVFPIYFVMRVNKVPATTGYWKKQRPMTGVEAEWDRDQGKYKLYTRYGKEIAGDDVGAYFTFETEEGEQVEVQMGVSFVSIENARLNLDKEQSGKNFEQVLSDARAQWNDDLSRITVEGGTDAQKTVFYTALYHLLIHPNVLQDVNGEYPAMESDQILTTKGTRYTVFSLWDTYRNVHQLLTLVYPERQMEMVRTMLDMYREHGWFPKWELYGRETLTMEGDPSIPVIVDTWMKGLRDFDVDLAYEAMYKSATLPGAENLMRPDNDDYMSKGYVPLREQYDNSVSHALEYYIADFALSRFADALGKKKDAEMFYKRSLGYKHYYSKEFGTFRPILPDGTFYSPFNPRQGENFEPNPGFHEGNSWNYTFYVPHDVYGLAKLMGGKKPFVNKLQMVFDEGLYDPANEPDIAYAHLFSYFKGEEWRTQKETQRLLDKYFTTKPDGIPGNDDTGTMSAWAIFNMIGFYPDCPGLPEYALTTPVFNKVTIRLDPKWYKENELVIESNRTGSETLYINKVLLDGKKFNKYRITHDELVHGKRLIFDLK
Turning to B4, in [6], the Michaelis constant (Km) worked out at 1700 µM and the catalytic constant (kcat) came out at 0.006 s⁻¹. The specificity constant (kcat/Km) in series [7] turned out to be 3.5 M⁻¹ s⁻¹.

B5: Glycoside hydrolase family 92 (BT_3963) (Bacteroides thetaiotaomicron), Q8A0Q8 (protein)
chain: MNKMKKKVLMMTMAAVTLSAVAQQPVDYVNPIIGTNGMGHTFPGACTPFGWVQLSPDTDTIPHNVNGAYQKNAYEYCAGYQYRDKTIVGFSHTHLSGTGHSDLGDILLMPAVGDVKLNPGRADHPEEGYRSRFDHATEKATPGYYEVMLDDYGIKAQLTATQRTGVHKYTFPKGKDGHLILDLVHGIYNYDGKVLWANLRVENDTLLTGYRITNGWARTNYTYFAISLSQPIKDYGYKDKEKVLYNGFWRRFKLEKNFPEITGRKIVAYFNFETAKDPELVVKVALSAVSTEGAVKNLRAEASGKSFEQLAEAARTDWNNELDHFEIEGTPDQKAMFYTSLYHTMINPSVYMDVDGSYRGLDHNIHQAKGFTNYTIFSLWDTYRAEHPFLNLVKPERNADMVESMIKHEQQSVHGMLPIWSLMGNENWCMSGYHAVSVLADAITKGVFSNVDEALSAMVSTSTVPYYEGVADYMKLGYIPLDKSGTAASSTLEYAYDDWTIYQTALKAGNKEIADTYRKRALNYRNIYDTSIGFARPRYSDGTFKKEFDVLQTYGEGFIEGNSWNFSFHVPHDVFGMIDLMGGEKTFVQKLDELFSMHLPEKYYEHNEDITEECLVGGYVHGNEPSHHVPYLYAWTSQPWKTQYWLREILNKMYKNDINGLGGNDDCGQMSAWYLFSVMGFYPVCPGTDQYVLGAPYLPYLKLTLPNGKTLEIKAPGVSDKKRYVQSLKLNGESYDKMYITHEDILKGGVLEFKMSASPNKRRGVSVQDKPYSLTNGIN
Turning to B5, the kcat/Km in series [8] stood at 0.567 M⁻¹ s⁻¹. In [9], the Km came to 790 µM and the turnover number (kcat) turned out to be 0.00045 s⁻¹.

B6: Alpha-1,2-mannosidase, putative (BT_3130) (Bacteroides thetaiotaomicron), Q8A325 (protein)
chain: MKKLLLSVCAFSLTLATLQAGEITKYVNPFIGTGAIDGGLSGNNYPGATSPFGMIQLSPDTSEAPNWGDASGYDYNRNTIFGFSHTRLSGTGASDLIDITLMPTSSGRTSSAFTHDEEKARPGYYQVMLKDENINAELTTTQRNGIHRYQYPAGKDAEIILDMDHSADKGSWGRRIINSQIRILNDHAVEGYRIITGWAKLRKIYFYMEFSSPILTSTLRDGGRVHENTAVINGTNLHGCFRFGQLNGKPLTCKVALSSVSMENARQNMEQEAPHWDFDRYVAAADADWEKQLGKIEVKGTEVQKEIFYTALYHTMIQPNTMSDVNGEYMAADYTTRKVANNETHYTTFSLWDTFRASHPLYTLLEPERVTDFVKSMIRQYEYYGYLPIWQLWGQDNYCMIGNHSIPVITDAILKGIPGIDMEKAYEAVYNSSVTSHPNSPFEVWEKYGFMPENIQTQSVSITLEQAFDDWCVAQLAAKLNKDADYQRFHKRSEYYRNLFHPKTKFFQSKNDKGEWIEPFDPYQYGGNGGHPFTEGNAWQYFWYVPHNIQALMELTGGTKAFEQKLDTFFTSTYKSEQMNHNASGFVGQYAHGNEPSHHVAYLYNFAGQPWKTQKYVSHILNTLYNNTSSGYAGNDDCGQMSAWYVFSAMGFYPVNPADGRYIIGSPLLDECTLKLAGNKEFRIRTIRKSPEDIYIQSVTLNGKKHKDFFITHQDIMNGGTMVFKMGKKPSGWGK
As to B6, the specificity constant (kcat/Km) in [10] was 112000 M⁻¹ s⁻¹. Also, in series [11], the Km turned out to be 510 µM and the kcat amounted to 56.7 s⁻¹.

The values are drawn from ChEMBL document CHEMBL1250451, “Mechanistic insights into a Ca2+-dependent family of alpha-mannosidases in a human gut symbiont” (Nat Chem Biol, 2010).
